{"source": "the DeepSol protein solubility set"}
{"assay": "soluble on expression in E. coli; label from the status in PepcDB or PDB records"}
{"sequence": "MKPICIIPARSGSKGLPDKNMLFLSGKPMIFHTIDAAIESGMFDKKDIFVSTDSELYREICLERGISVVMRKPELSTDQATSYDMLKDFLSDYEDNQEFVLLQVTSPLRKSWHIKEAMEYYSSHDVDNVVSFSEVEKHPSLFTTLSDEGYAIDMVGADKGYRRQDLQPLYYPNGAIFISNKETYLREKSFFTSRTYAYQMAKEFSLDVDTRDDFIHVIGHLFFDYAIREKENKVFYKEGYSRLFNREASKIILGDSKTISTSLESYHNYSQGGVTLATMLENLPNFLTANVTEAFVSIGVNDLITGYSVEEIFSNFQKLYSLLAENKIKMRLTTIAYTLFRETVNNADIEKINQWLTEFCYQNQIPLLDINRFLSKDGNLNYHLTSDGLHFTQEANDLLQSQYQLFVDEVKTLLEHHHHHH", "soluble on expression in E. coli": "soluble"}
{"sequence": "MKPSTSKTTHSPPPEEPTAPFVNDNLPNPEDEPTIGDLNAFHSGEELHRQRSELARANYEKARPEMIANQRAVTAHLFNRYTEDEERKRVEQQKNKEAMNASTSAPTSSRNGGQSVENRKRRNDVVVAPPTSEEEWKRAQQQHWMGQQQPQMQFQMQQQYHSQQQQYIMMQQQHHHMTGMQQIHHQMPSTSSADSIRSVPTPASSMHQPSPAEMRNGCGMSRNATMDMTCSPMSGGQPIVDENNLAVPEGEWFDKLALAVAEQYNVDTILGPDTYDTFLAELDFSSSESPTKQSPMEMNGDRMPSTAPPPAQNPQHIAQLQQQQNKMRLMQQQQQEMQRIEQQRRQQIMQQQQQQQQQEHQRQQMLLQQQQQQQQMQQHHQMNGGGQFATQAHQQAAYMQQMQRMEQIRHQQQQAQQHQQAQQQHQQQAQHHQMGYGIPNGYPQQMHMHPPAYGAHHMPQPTAFANIN", "soluble on expression in E. coli": "not soluble"}
{"sequence": "MKQHCQKQSTARSTKLQYLAENQNDQPRLLAGSLSHGDSTTGPIKYKDGHQKRTTVVWDGQGTIRDETKSNIIKLTYLYLFPSCGAGSVRELVPFSSYHSFIVTHSTFNITMIALQSKCILPPCLPL", "soluble on expression in E. coli": "not soluble"}
{"sequence": "MKQLSGLLGELRQKLCAGFPEQAGIQQLIFPAPGLVGRQLLEWLTAQTHFPQFYWRHRDNHEEAAVCGQTRSFADMKDADDFIQQNPDANGLRIWGLNAFEPVMVFGQLTDNGLVSGKNAQASFLFLPRLEILRRGKKTSLTLNLSSETSLQKDALQAITFIDQLMAARALPVLNARIQHSSHTPGYPQWRNLIQQALNDIEQQKLDKVVLARTTTLTLNKPLSCAAFMAASRQVNHRCYHFMLRFDDRQAFLGSSPERLYLRQQLHLETEALAGTVSNLDSDPQAAVLADWLMHDEKNQRENLLVVDDICQRLQGGVTAVDVMPPEIIRLRKVQHLRRRICAQLSRASDTDCLQRLQPTAAVAGLPREAARQFIAKHELFSRGWYAGSAGYLSLKRTEFSVALRSARVDGQQIHLYAGAGIVAGSDAEQEWQEIDNKSAGLQSLLEHEAQPVKA", "soluble on expression in E. coli": "not soluble"}
{"sequence": "MKQLSVSLAILCAVATSEAFAADELQQRAQGLFKPVPAKAPTLKGNPASPVKVELGKMLYFDPRLSASHLISCNTCHNVGLGGGDLQATSTGHGWQKGPRNAPTVLNSVFNTAQFWDGRAKDLAEQAKGPVQASVEMNNTPDQVVKTLNSIPDYVALFKKAFPGEKDPVTFDNMAKAIEVFEATLITPDSPFDQYLKGKKKALDGKQTAGLKLFLDKGCVACHGGLNLGGTGYFPFGVVEKPAENILPLGDKGRFAVTNTAKDEYVFRAPSLRNVAITYPYFHSGVVWSLKEAVAVMGSAQFGIKLSDDESEAIAAFLGSLTGKQPKVVYPIMPASTDATPRPRL", "soluble on expression in E. coli": "soluble"}
{"sequence": "MKQPTLAVIMTCHNRRNTTLACLQALYQQKNHFDVYLTDDGSTDGTAEFIKAEYPDVKIFQGDGNLFWVGGMHLAFGEAIKNQYDYYLWLNDDTFLEADALEKLLQVHENLAVEGYGQSIVVGSTQDPITKQATYGGAVKSKKWYSNKFEFLEPTSDVQKCDAMYGNCVLIPHSVTLKVGNIDTAFIHSLGDLDYALRARNLGLEHHHHHH", "soluble on expression in E. coli": "not soluble"}
{"sequence": "MKQQEEHNNKIDLLEKQQAQLKSQLETIQKQQTGIISSTKTLTHVIKSVKDQQNTFIFTEFNPAKTKYFILNNGSVALAGRVLSIDATENGSVIHISLVNLLSTPISNIGFNATWGGEKPVDAKEFARWQQLLFNTSMKSTLKLLPGQWQDINLTLKGVSPNNLGYLKLAINMENIQFDNLPSAENRQKRSKK", "soluble on expression in E. coli": "not soluble"}
{"sequence": "MKQRQWQGWGPGEQAEQQHYLVQPRALAGGGDIRHVSEFLRASGWRDKSKTCGPLLMESPDRTVRVAYDPYILPGGWTIHGRTGAKGEWSAHLGLQTPVEIVAGLTDALTRPRSAHAPSVWEPLQEQNWHTRFADQNYTATSPDGAAWMQYRQDADGSAMWWTGAKDEEGNGWTAHFTPNTPMHLVQAFSTELAGPDPVMRPRGRVPHSAQIRTWSVSVKPSQLSAWQQARITAARAATWARSSTRGTRPRTTARPHTPTGGARTRRLEHHHHHH", "soluble on expression in E. coli": "not soluble"}
{"sequence": "MKQVKIMFLMTMFLGIGLLFFSENAEAAITSNEIGTHDGYDYEFWKDSGGSGSMTLNSGGTFSAQWSNVNNILFRKGKKFDETQTHQQIGNMSINYGATYNPNGNSYLTVYGWTVDPLVEFYIVDSWGTWRPPGGTPKGTINVDGGTYQIYETTRYNQPSIKGTATFQQYWSVRTSKRTSGTISVSEHFRAWESLGMNMGNMYEVALTVEGYQSSGSANVYSNTLTIGGQSGGEQATRVEAESMTKGGPYTSNITSPFNGVALYANGDNVSFNHSFTKANSSFSLRGASNNSNMARVDLRIGGQNRGTFYFGDQYPAVYTINNINHGIGNQLVELIVTADDGTWDAYLDYLEIR", "soluble on expression in E. coli": "soluble"}
{"sequence": "MKQVLVIKNERSSAKKIVSGLTQEGYFILKLHNENEGLNIIYEQDWDIIILDWDSLSISGPEICRQIRLVKTTPIIIVTDNISSKDCVAGLQAGADDYIRKPFAKEELVARVQAILRRSDCNQQKEINFFQFKDLFVDASSNIVKKGGKNLSLTKREYDLLVFLIKNKNTILSREMLLNQVWGYNIVVNPNVVDLYIGYVRKKLKCEKKERYIQTIHGRGYSMIE", "soluble on expression in E. coli": "not soluble"}
{"sequence": "MKRHYLFSICILTLLLLAACGSSATEDHELEVPEDQETIEIDGEEEDSSQPVFSDEEALVVDDLLEEESRGEEATEHSEPIEEDTSTPSEASGSENVEETEQQPADENNQAFALNVKKFKLELEWQDGDELEMEYEQKKNEKGKAKVEWDGAHKEKMSGKQAVEWMEDFLSQLDLSEGTNSDRLKSQVYAILDIDPSEVEELDLEIEFFDMAGDPLEHHHHHH", "soluble on expression in E. coli": "not soluble"}
{"sequence": "MKRKHLSGKSIGIVFGTFAPMHVGHVDLITKEKRANDNVLVIVSGSNTQKDRGTRTGLSLNRRFRNVREIFYDDELIVVDKLDEADMPPYPEGWVPWVNRVKDLITKNTDGPEKITFYVGESEYVIELNRYYPQAQVELIECSVINISATEIRDNPIENWRFITKPFRRHFTRKVLVVGSASGGKTTLVKDLARTYNAPCSLEYAREYQEKYNVRDDELDTNDYIHLLTDQYAQTAEIIDNGQHSWLIFADTNSTVTKVYIDYYLKENISQEEFDLLDRLYQVTQAREKWDLIFVILPKSNYVDDGSRDMTMADNRTRDWFTKHLLDLLSPFKDKIVILVENCDSDSFFADNYHYAKKTIKERLHIEI", "soluble on expression in E. coli": "not soluble"}
{"sequence": "MKRKTIDIITLGCSKNLVDSEQLMRQLEEAGYDVTHDSEKPTGEIAVINTCGFIGDAKEESINMILEFAQEKEEGNLEKLFVMGCLSERYLKELAIEIPQVDKFYGKFNWKGLLQDLGKAYHEELHIERTLTTPKHYAYLKISEGCDRKCSYCAIPIITGRHVSRPIEEILDEVRYLVSNGVKEFQVIAQELTYYGVDLYKKQMLPELIERISEIPGVEWIRLHYAYPAHFPEELFRVMRERDNVCKYMDIALQHISDNMLQRMRRHVTKKETYRLIEQFRKEVPGIHLRTTLMVGHPGETEGDFEELKEFVRKVRFDRMGAFTYSEEEGTYAAANYEDSIPQELKQARLDELMAIQQGISTELSASKVGQKMKVIIDRIEGEYYIGRTEFDSPEVDPEVLIRCEGDNLMIGNFYQVQVIDSDEFDLFGEIILEHHHHHH", "soluble on expression in E. coli": "soluble"}
{"sequence": "MKRLLILTALLPFVGFAQPINTLNNPNQPGYQIPSQQRMQTQMQTQQIQQKGMLNQQLKTQTQLQQQHLENQINNNSQRVLQSQPGERNPARQQMLPNTNGGMLNSNRNPDSSLNQQHMLPERRNGDMLNQPSTPQPDIPLKTIGP", "soluble on expression in E. coli": "soluble"}
